Test results published in PMC4297426.

molecular target: Gal4 (BD)-human NP: nucleoprotein of the contemporary human IAV H3N2 strain A/Ca/07/04 (influenza A virus H3N2, strain A/Ca/07/04 (human)); assay: two-hybrid

Going from “Solute carrier family 30 (zinc transporter), member 9 (SLC30A9) (domain or fragment)” to “Potassium channel tetramerisation domain containing 9 (KCTD9) (domain or fragment)”, the β-Gal activity falls from 82.9 Miller units to 5 Miller units.

Compared with “phosphoribosylaminoimidazole carboxylase, phosphoribosylaminoimidazole succinocarboxamide synthetase (PAICS) (from UniProt P22234 1-425) (natural protein)”, “FLJ30306 (…: Homo sapiens uncharacterized LOC101059922, mRNA) (natural protein)” is lower in β-Gal activity: 2.2 Miller units for the first, 1.9 Miller units for the second.

First: Acyl-CoA thioesterase 13 (ACOT13) (from UniProt Q9NPJ3 1-140) (natural protein)
Second: Proteasome (prosome, macropain) activator subunit 2 (PA28B) (from UniProt Q9UL46 1-239) (natural protein)
The β-Gal activity of the first is higher: 6.9 Miller units for the first, 6.7 Miller units for the second.

Compared with “Transformer 2 beta homolog (Drosophila) (TRA2B) (from UniProt P62995 1-288) (natural protein)”, “Myb/SANT-like DNA-binding domain containing 3 (MSANTD3) (domain or fragment)” is higher in β-Gal activity: 1.9 Miller units for the first, 13.9 Miller units for the second.

First: Cytoskeleton associated protein 5 (CKAP5) (domain or fragment)
Second: ATPase, Na+/K+ transporting, beta 1 polypeptide (ATP1B1) (domain or fragment)
The β-Gal activity of the first is higher: 70.1 Miller units for the first, 3.4 Miller units for the second.
